Substitutions are numbered along the chain they refer to.
Assays:
Test in all cases: SPR, Biacore T200, 25 C; FVII(a) variant captured on anti-Gla Ab 4F6, mAb0842(OA) injected
FVII(a) variant P251A = target: T1, FVII(a) variant P251A (human, UniProt P08709 61-466)
T1 construct: hFVII alanine variant in cell culture supernatant
T1 sequence: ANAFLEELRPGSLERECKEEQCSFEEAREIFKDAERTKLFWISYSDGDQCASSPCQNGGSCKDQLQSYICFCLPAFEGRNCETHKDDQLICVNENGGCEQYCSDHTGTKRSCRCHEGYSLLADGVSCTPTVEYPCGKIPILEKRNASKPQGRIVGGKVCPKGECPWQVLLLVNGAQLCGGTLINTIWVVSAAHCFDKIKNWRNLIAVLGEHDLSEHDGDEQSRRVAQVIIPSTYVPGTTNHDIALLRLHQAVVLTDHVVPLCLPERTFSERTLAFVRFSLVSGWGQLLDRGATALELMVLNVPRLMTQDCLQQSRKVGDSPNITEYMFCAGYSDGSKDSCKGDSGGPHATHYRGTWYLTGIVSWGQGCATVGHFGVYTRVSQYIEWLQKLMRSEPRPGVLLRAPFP

FVII(a) variant R392A = target: T2, FVII(a) variant R392A (human, UniProt P08709 61-466)
T2 construct: hFVII alanine variant in cell culture supernatant
T2 sequence: T1 sequence with A251P, R392A

FVII(a) variant H115A = target: T3, FVII(a) variant H115A (human, UniProt P08709 61-466)
T3 construct: hFVII alanine variant in cell culture supernatant
T3 sequence: T1 sequence with H115A, A251P

B1: mAb0842(OA) (antibody, human IgG4 S228P, kappa)
heavy: QVQLQESGPGLVKPSQTLSLTCTVSGYSISSDSAWSWIRQPPGKGLEWIGYIQYSGSTNYNPSLKSRVTISRDTSKNQFSLKLSSVTAADTAVYYCARSVNYYGNSFAVGYWGQGTLVTVSSASTKGPSVFPLAPCSRSTSESTAALGCLVKDYFPEPVTVSWNSGALTSGVHTFPAVLQSSGLYSLSSVVTVPSSSLGTKTYTCNVDHKPSNTKVDKRVESKYGPPCPPCPAPEFLGGPSVFLFPPKPKDTLMISRTPEVTCVVVDVSQEDPEVQFNWYVDGVEVHNAKTKPREEQFNSTYRVVSVLTVLHQDWLNGKEYKCKVSNKGLPSSIEKTISKAKGQPREPQVYTLPPSQEEMTKNQVSLSCAVKGFYPSDIAVEWESNGQPENNYKTTPPVLDSDGSFFLVSRLTVDKSRWQEGNVFSCSVMHEALHNHYTQKSLSLSLGK
light: EIVLTQSPATLSLSPGERATLSCRASQGISDYLHWYQQKPGEAPRLLIKYTSQPATGIPARFSGSGSGTDFTLTISSLEPEDFAVYYCQNGHSFPLTFGQGTKLEIKRTVAAPSVFIFPPSDEQLKSGTASVVCLLNNFYPREAKVQWKVDNALQSGNSQESVTEQDSKDSTYSLSSTLTLSKADYEKHKVYACEVTHQGLSSPVTKSFNRGEC
chain: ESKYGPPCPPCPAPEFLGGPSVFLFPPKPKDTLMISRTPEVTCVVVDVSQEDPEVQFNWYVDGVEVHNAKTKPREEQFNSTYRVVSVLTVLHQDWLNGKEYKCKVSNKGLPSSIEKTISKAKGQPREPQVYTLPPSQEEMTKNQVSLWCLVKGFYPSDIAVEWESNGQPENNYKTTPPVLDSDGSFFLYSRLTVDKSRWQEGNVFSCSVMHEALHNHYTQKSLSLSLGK
notes: also called monovalent humanized 11F2 antibody; one-armed anti-FVII(a) antibody
FVII(a) variant P251A
  Kd: 0.85 nM
FVII(a) variant R392A
  Kd: 43.4 nM
FVII(a) variant H115A
  Kd: 8.16 nM
